Columns and labels:
[1] = target: T1, ZRANB2-F12 delta45-64 (Homo sapiens, UniProt O95218 O95218:1-44+65-95, del45-64); assay: FP; conditions: label: 5'-fluorescein
[2] = target: T2, ZRANB2-F12 (Homo sapiens, UniProt O95218 O95218:1-95); assay: FP; affinity increases with spacing; value in figure only; conditions: tags: GST removed for FA, gel shift and SPR; label: 5'-fluorescein
Description: (§1) Fluorescence Anisotropy titrations e.g., as shown in FIGS. 1D-F, 8 and 35, were carried out using standard protocols. In brief, 5′-Fluorescein-labeled RNA oligonucleotides were quantified by A₂₆₀, correcting for fluorescein absorbance by using A₄₉₃. For single-site experiments, the sequence […] (SEQ ID NO: 28), or single base mutants thereof, was used. For double-site experiments, two AGGUAA sites were separated by different length sequences as indicated, and the total oligonucleotide lengths were kept constant by the symmetrical addition of adenines to each end. […] Protein was titrated into this starting solution and anisotropy values measured on a Cary Eclipse fluorescence spectrophotometer fitted with manual polarizer and long-pass filters set to 475 and 515 nm for excitation and emission, respectively. […] Association constants were determined by nonlinear least squares regression analysis using a 1:1 binding model.
The importance of the spacing between AGGUAA motifs was assessed by measuring binding of F12 to double sites that were separated by −1 to 8 nt (where −1 denotes the sequence […] SEQ ID NO: 33; FIG. 1E, lanes 5-10).

[3] = target: ZRANB2-F12 delta47-61 (Homo sapiens, UniProt O95218 O95218:1-46+62-95, del47-61); assay: FP; about 30-51e6 stated; order comparable to wild-type F12; conditions: label: 5'-fluorescein
Description: as §1
(§2) The inventors have employed deletion mutagenesis to thereby identify a minimal inter-finger linker region of ZRANB2 required for specific ssRNA-binding. […] The deletion constructs were then tested for an ability to bind the ssRNA substrate 5′-GGUNXGGU-3′ comprising a repeat of the GGU core sequence using fluorescence anisotropy titration.

[4] = target: T1, ZRANB2-F12 delta45-64; assay: FP; lower affinity than F122; conditions: label: 5'-fluorescein
Description: Fluorescence Anisotropy titrations e.g., as shown in FIGS. 1D-F, 8 and 35, were carried out using standard protocols. In brief, 5′-Fluorescein-labeled RNA oligonucleotides were quantified by A₂₆₀, correcting for fluorescein absorbance by using A₄₉₃. For single-site experiments, the sequence […] (SEQ ID NO: 28), or single base mutants thereof, was used. For double-site experiments, two AGGUAA sites were separated by different length sequences as indicated, and the total oligonucleotide lengths were kept constant by the symmetrical addition of adenines to each end. The anisotropy titrations were performed with a starting RNA concentration of 50 nM in a buffer comprising either 10 mM Tris (pH 8.0), 50 mM KCl, 5 mM MgCl₂, 0.05 mg/mL heparin, and 1 mM DTT (for GST fusion constructs) or 10 mM Mops (pH 7.3), 50 mM NaCl, 0.05 mg/mL heparin, and 1 mM DTT (for ZRANB2-F12). RNasin (Promega) was also added to the protein solution to a concentration of 2 units/μL. Protein was titrated into this starting solution and anisotropy values measured on a Cary Eclipse fluorescence spectrophotometer fitted with manual polarizer and long-pass filters set to 475 and 515 nm for excitation and emission, respectively. […] Association constants were determined by nonlinear least squares regression analysis using a 1:1 binding model. […]

[5] = target: T2, ZRANB2-F12; assay: FP; range stated for deletion construct and comparable wild type; conditions: tags: GST removed for FA, gel shift and SPR; label: 5'-fluorescein
Description: as §1, §2

[6] = target: EWS RanBP2-type zinc finger (Homo sapiens, UniProt Q01844 Q01844:518-549); assay: FP; value in figure only; conditions: tags: expressed as GST fusion
Description: Fluorescence Anisotropy titrations e.g., as shown in FIGS. 1D-F, 8 and 35, were carried out using standard protocols. In brief, 5′-Fluorescein-labeled RNA oligonucleotides were quantified by A₂₆₀, correcting for fluorescein absorbance by using A₄₉₃. For single-site experiments, the sequence […] (SEQ ID NO: 28), or single base mutants thereof, was used. For double-site experiments, two AGGUAA sites were separated by different length sequences as indicated, and the total oligonucleotide lengths were kept constant by the symmetrical addition of adenines to each end. The anisotropy titrations were performed with a starting RNA concentration of 50 nM in a buffer comprising either 10 mM Tris (pH 8.0), 50 mM KCl, 5 mM MgCl₂, 0.05 mg/mL heparin, and 1 mM DTT (for GST fusion constructs) or 10 mM Mops (pH 7.3), 50 mM NaCl, 0.05 mg/mL heparin, and 1 mM DTT (for ZRANB2-F12). RNasin (Promega) was also added to the protein solution to a concentration of 2 units/μL. Protein was titrated into this starting solution and anisotropy values measured on a Cary Eclipse fluorescence spectrophotometer fitted with manual polarizer and long-pass filters set to 475 and 515 nm for excitation and emission, respectively. […] Association constants were determined by nonlinear least squares regression analysis using a 1:1 binding model.

[7] = target: T3, ZRANB2-F2 (untagged) (Homo sapiens, UniProt O95218 O95218:65-95); assay: structure; crystal structure 1.4 A; W79 stacks between G2 and G3
T3 chain: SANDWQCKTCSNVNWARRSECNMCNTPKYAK

[8] = target: EKLF-F123 (UniProt P46099 P46099:275-357); assay: FP; higher affinity than poly(C) or AGGUAA; also HSQC titration; conditions: tags: zinc fingers 1-3
[9] = target: T4, ZRANB2-F2 R82N (Homo sapiens, UniProt O95218 O95218:65-95, R82N); assay: FP; also about 2-fold increase versus WT F2; conditions: label: 5'-fluorescein
T4 chain: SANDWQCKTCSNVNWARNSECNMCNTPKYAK
Description: The anisotropy titrations were performed with a starting RNA concentration of 50 nM in a buffer comprising either 10 mM Tris (pH 8.0), 50 mM KCl, 5 mM MgCl₂, 0.05 mg/mL heparin, and 1 mM DTT (for GST fusion constructs) or 10 mM Mops (pH 7.3), 50 mM NaCl, 0.05 mg/mL heparin, and 1 mM DTT (for ZRANB2-F12). RNasin (Promega) was also added to the protein solution to a concentration of 2 units/μL. Protein was titrated into this starting solution and anisotropy values measured on a Cary Eclipse fluorescence spectrophotometer fitted with manual polarizer and long-pass filters set to 475 and 515 nm for excitation and emission, respectively. Excitation and emission wavelengths were set at 495 and 520 nm, respectively (10-nm slits) and the temperature was maintained at 25° C. by using a block temperature controller. Association constants were determined by nonlinear least squares regression analysis using a 1:1 binding model. […]

EWS RanBP2-type zinc finger, sequence (Q01844 518-549, one chain of several): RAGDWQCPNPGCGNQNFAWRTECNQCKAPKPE
EKLF-F123, sequence (P46099 275-357, one chain of several): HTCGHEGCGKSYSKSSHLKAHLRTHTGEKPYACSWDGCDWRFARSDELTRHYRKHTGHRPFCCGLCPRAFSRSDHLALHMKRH

## AAGGUGGUGGUAA (ssRNA) [GGUGGUGGU 13-mer]
[1]
  Ka: ~2.5e+07 M⁻¹

## AGGUAAGGUAA (ssRNA) [double site spacing -1]
[2]
  binding result: binds

## AAAGGUGGUAAAA (ssRNA) [GGUGGU 13-mer]
[3]
  binding result: binds
[4]
  binding result: binds
[5]
  binding result: binds

## AGGUAA (ssRNA) [AGGUAA hexamer]
[6]
  binding result: binds
[7]
  binding result: binds

## UUUUUUUUU (ssRNA) [U9]
[8]
  binding result: binds

## AGUUAA (ssRNA) [AGUUAA (3U)]
[9]
  binding signal: ~2 fold higher than AGGUAA

From patent US20130022590, “Compositions Comprising Zinc Finger Domains and Uses Therefor” (published 2013)
